Assay results taken from patent US20190045761.

Tests used:
[1] = test system: FAH 5.3 TALEN right (3') (synthetic construct); assay: cell_activity; settings: TALEN pair with HDR oligo (HindIII) in RG-KO pig fibroblasts, 16 bp spacer
[2] = test system: FAH 5.3 TALEN left (5') (synthetic construct); assay: cell_activity; settings: TALEN pair with HDR oligo (HindIII) in RG-KO pig fibroblasts, 16 bp spacer

| Sequence | activity (% of colonies positive) [1] | activity (% of colonies positive) [2] |
| --- | --- | --- |
| GGTATGTCCCAGACC (double strand) [FAH 5.3 TALEN 3' half-site] | 5.3 | – |
| TCAGGGGCAAGGAGACT (double strand) [FAH 5.3 TALEN 5' half-site] | – | 5.3 |
